Reference: patent publication US20180313836A1
pKd: −log10 of the molar value.

Target: Nrp1 immobilized on the biolayer interferometry biosensor (Homo sapiens (Human)) (UniProt O14786)
Experiment: biolayer interferometry, Nrp1 immobilized on the biosensor

| Substance | pKd |
| --- | --- |
| human glycyl-tRNA synthetase P234KY (P234KY-GlyRS^CMT2D) (from UniProt P41250 37-739) (enzyme) | 6.68 |
| human glycyl-tRNA synthetase L129P (L129P-GlyRS^CMT2D) (from UniProt P41250 55-739) (enzyme) | 7.53 |
